The record followed here is a protein production outcome set (Wang et al. 2014).

This series is described as follows: label from the status in PepcDB records.
Consider “MSPLALLFLTLFNSVLGLSILFPILGPLGRALGLTEVQVGLFSTGYALMQFLLSPYWGRRSERGRKPVLLVGILGFAASFLLFGVFALLGERGLVPPGLLFFLLLLARLLGGAFSSATLPTAQAYVADVTGRENRTAGMALLGAAFGLAVILGPALGAGLAALFGLLAPVFFSAGIALLNALFVYLVLPESRPRGQEAGARLSPFDPRVFPLLLLGLALNLSSVALEQTIAFYFQDRLLLGGVETAQKVGLALVLYGVVAVFVQGVLVRKTGWPPRVLLSLGLPLGILGFVLLVYAKTFWALALGLALQGAGQGLALPGVTAALSLAVGEGEQGLVAGLNSSAQALGRMLGPIVGTGLYRLAPEGPYVLGASLLLLALLFLPALFRRARL”, for which the protein production result is reported as “failed”.
Under “MAHVRLFRHYIHLPFVILGLIDLIVMGLAFALAVFFRFFGELEFFLDNLVFVLPSITIFALFNLIVMIALGVHQSRVEEGMSGMMLRTIMAMILAIPLHGFAYFVADDWLWYLGSFGLLTSATVLGIFSLGIARVVFFAVVGKDRFKRRVLVLGAGRRAKQMFEDLTTPFNRKGFSLDGFVPMPDDTVEVDEQYLINLPTSLHDYVLRHPVREIVVAVDDRRRGLPMEDLLECKMEGVHIIDGANFYERESRKVALEMITRGWLVFSDGFTVSSVYGVGKRALDVLASGTLLLATFPIMILTAIAIKLEDGLKAPVIYSQERVGLNNQVFKVHKFRSMITDAEKNGAVWARKNDTRVTRVGEFIRKVRIDELPQIFNVLNGTMAFVGPRPERPVFVEQLSEKIPFYAERHRVKPGLTGWAQLCFAYADNEEDTREKLRYDLYYIKNQSLLLDLLIIIQTVEVVLFKKGSR” stands “failed”.
Turning to “MSLHETFNRSAFSQFINGGQGRVLRLAAGLGFLAVGLVYRDRALGLAAMAWSVLPLTAGGFDVCYISAALGGPLSGEKIRRLRR”, the protein production entry is listed as “failed”.
As to “MDKILFDIALILIFTKIGSLISIHFKMPGVLGELIAGVILGPFILNLIQANADIKLLSDLGVVFLMFLAGIETNLDELKKAGKSSFLIALGGIIIPLIVGTLSAYMFFSNFYENLFVGVILTATSVSISVQTLTELGKLNTRSGINILGAAIIDDVLGLILITVVLAISGGTKSHGSSIFMTFIYIGIFCLVSLLAIAFLPKPIDKLTQKFKPQKGLAIFSIAAALICAFTAEKLGIAAITGAYICGLVLSPITHKEYIEKRVKIISTSFLSPIFFASVGISASVKGLNFEVLLITLIMFIIAVIGKILGCSASALTLKFKKSEALQIGVGMVSRGEVAIITANIGLQAKIISEEIFLPTLIVVILTTVITPILLKIVFSHKTQKLIDKETLT”, the protein production entry is “failed”.
Under “MATLNKALTRPAAIAGIPIVPFVIVSGAIVLLSVYLSYYLVLLLIPAWLEMKAKARTDIHYFGLLWLAFKTRGRFATNKYFGANAMLANRYDAVDVSEFIEKMKLNERVTLDKHIPYSSHVHPQVIRNRHGDLVSTWELGGTVFECEDEHHLTLMATHLNNVIRSYEGLPITFYLHRIREKYQDAFAASSGIPFSDDVTALYYQPIKEKPLWRHRLFFTLCYAPFSRLEKKAMKAQPSGKRTAALDGALKVMLEHRAALASALSRYTATPLGVYEENGRVYSSQLSFYHRLLTGQWQKVAVTRSPFYDILSTPDVFFTTDTAECQTVSGSRFFRSLEIKDYSPDTATGLLDALLYAESEYVMTQSFTCMARDEAQNHIRLAEKRLNSAADDAISQREELIVLRDLLQSGHVSCGKYHFSLLVSSDSADQVVKDVNALAQPFADLGIMTTLSTLSLPAAYLAQLPGVYTLRPRLVAVSSQNFADMASLHNFHPHKRNGNPWGEAITIMTSPGGGGYYLNLHDSQAGRDDFNEKTPGNTAIIGKTGSGKTMLMTVMQQLMQKYRNPATFSESAPHKRLSTVYFDKDRAAEMAIRQMGGRYFRLRTGVPTGFNPFALAPTKRNISFIKRLVRMLCRRNSKPLDPRDEERISTAVDTIMLDYPPEYRRYGITRLLEVLPEPPTKEARTNGLRIRLKQWAQGGEFGWVFDNETDTFDISDIDNVGIDGTEFLDDDDIRGPITFYLLYRVTGLLDGRRLVMFMDEFWKWLADVEFSRFSLNMLKVIRKLNGIFIPATQSPDEIVRHPIAPAIIEQCGTQIFLANPKASRADYVEKMKVPDSVYDIVRHLDPGERYMVVLKTPLRAGETRPFVSMAKMDLSGLGKITRMLSGSEDNLKLFDALYQEGMQPDDWKDAFLEIAL” stands “failed”; under “MSLRTQLIAVLIDDYSNPWFIDLIQSLSDVLTPKGYRLSVIDSLTSQAGTDPITSALSMRPDGIIIAQDIPDFTVPDSLPPFVIAGTRITQASTHDSVANDDFRGAEIATKHLIDLGHTHIAHLRVGSGAGLRRFESFEATMRAHGLEPLSNDYLGPAVEHAGYTETLALLKEHPEVTAIFSSNDITAIGALGAARELGLRVPEDLSIIGYDNTPLAQTRLINLTTIDDNSIGVGYNAALLLLSMLDPEAPHPEIMHTLQPSLIERGTCAPREGHHHHHH”, “not failed”.
As to “MASREVSITRISPLATFRVALAMSIIGLVAWIICVTVLYFGLNVAGVWQNFNDVIGGVGAEQTITFGLVLSISALLGAIGAITVAVLAPLCAIIYNSIVDLFGGLQIQLQEEVD”, the protein production result was “failed”.
On to “MRAFYSTTEEISALFAKQQEQLKTMQRTLEDEDNCDNTSLDIDLNPINRSPNRANTQGDKRATSHLNFAARASSSTSGQRSTRNEVVDTSCEDADATQKHDCEIMSQEGQNTQEAEYPSSDKVAKGGFGSDIEGIGTAPTSGTDPVGTEQVNETQSPGNDYERNDHLRKSIILAGDTMQIDCETQVHESVQIEGAVLLLRNPNDRRDTQDIEGVGTIGTSDLLASEVAGSWANSTNPSVHGENETERSREDEESQTQKIKEVTIVQDSAGQIGESQTKPTSPGVLVTNKDDAERGVINEPVGITDQGKIKHGTRSDSETESCSDSDDDHEKEKHNPVSDSDTEGSDMNDDKGSLSSDPDTERSHEVDGDQKKQVDTMDEDDKAT”, for which the protein production entry is on record as “failed”.
Under “MTTTMSTLPVVLVDEILARVPITSLRSLRSTCKKWEASSKTNLVGGKATARKSSHVGFILIGDKICSMKLDLNGGDDFVDTSVNQVSAFDGFAISQLFHCDGLLFCISNNHYSNYTLMVCNMYLGETRLIQNRSLFESYQNFCSYAFGYDSSKNRNHKILRNNSVSGGYEIYSLKSDSWKDLNVDLEKSIHLWRLGSVSLKGNAYFRVIKVIEEGVWEYNLLCFDFTRESFGKLLSLPFESLGDEGEGIMVISCVRDDHLAVLYQRDTLGIWISTEIEPNKVSWREFLQVDLATLDGFPDVFIAGRFIVDEEKQVVVVFGQETELDLNHGNAFIFGRDGYFTSFTVGDAPPEDFTSYVPSLVSLQIDKTGKRKARDD” stands “failed”.
“MNADGWLADTRSSYDTVAVSYADQLRGALAGTPYLRAALELFAGMIHTAGGGPVADVGCGPGHVTAHLHGLGVDAFGIDLSPAMIDVARRDHPDLRFEVGSMTDLNLADASVTALLAFWSLIHVPDDAIPAVFGHFRRVVRPGGPLLLGFHIGDESRLKTEGYGGHPMKVHVHHRQPVQVTAWLRDAGFTVEAQWLLGLDGHIPGAVLFAHRQSLEHHHHHH”: the protein production result is listed as “failed”.
With “MTLTPQELQTYLAALVRQNLQIATMIWGPPGVGKSSVVAQVARQHDLDFVDVRLSQLAPTDLRGLPVPEADAQGSGVSRWYPPEFLPRAGAGILFLDEVNMAPPTMQGMAQQLILDRRVGSYELPDGWFVWAAGNRKEDRASVFDMPAPLANRFLHLTVRPDFDSWRSYALAKGLHEHVIAFLTFRPELLWRLDPQQPAWPSPRSWEMAAQLHRAGLDASSAIGEAAGAEFAAFVRLFEQLPDLGTVLSGAGAGLKLPDEPSVRYAAVVGLAARAADAEEAYRAFTWLADSAGPEWLQLYVATLVSKFQALGQLGELAGLLGRDPRLAELVQGALSLAEGLEHHHHHH” the entry was “failed”; with “MDETGNLTVSSATCHDTIDDFRNQVYSTLYSMISVVGFFGNGFVLYVLIKTYHKKSAFQVYMINLAVADLLCVCTLPLRVVYYVHKGIWLFGDFLCRLSTYALYVNLYCSIFFMTAMSFFRCIAIVFPVQNINLVTQKKARFVCVGIWIFVILTSSPFLMAKPQKDEKNNTKCFEPPQDNQTKNHVLVLHYVSLFVGFIIPFVIIIVCYTMIILTLLKKSMKKNLSSHKKAIGMIMVVTAAFLVSFMPYHIQRTIHLHFLHNETKPCDSVLRMQKSVVITLSLAASNCCFDPLLYFFSGGNFRKRLSTFRKHSLSSVTYVPRKKASLPEKGEEICKV”, “failed”.
